Experimental data published in publication PMC9528458.

Target: Fzd of the reconstituted xWnt8-Fzd complexes (Fzd4 and FZD5) in nanodiscs

- occupancy (percent Wnt-bound Fzd after reconstitution): 30 to 40%
B1: Xenopus laevis Wnt8 (ligand)
chain: AWSVNNFLMTGPKAYLTYSASVAVGAQNGIEECKYQFAWERWNCPESTLQLATHNGLRSATRETSFVHAISSAGVMYTLTRNCSMGDFDNCGCDDSRNGRIGGRGWVWGGCSDNAEFGERISKLFVDGLETGQDARALMNLHNNEAGRLAVKETMKRTCKCHGISGSCSIQTCWLQLAEFRDIGNHLKIKHDQALKLEMDKRKMRSGNSADNRGAIADAFSSVAGSELIFLEDSPDYCLKNISLGLQGTEGRECLQSGKNLSQWERRSCKRLCTDCGLRVEEKKTEIISSCNCKFHWCCTVKCEQCKQVVIKHFCARRERDSNMLNTKRKNRGHRR
